Test results published in paper PMC8635976, “Ca^2+/CaM binding to CaMKI promotes IMA-3 importin binding and nuclear translocation in sensory neurons to control behavioral adaptation” (eLife, 2021).
Residue numbers refer to the chain shown, from its start. Numbers in names are those of the source.

Tests used:
Conditions in all cases: both partners purified
[1] = target: T1, IMA-3-His6 (IMA-3 importin-α) (C. elegans, UniProt Q19969 1-514, labeled using the RED-tris-NTA His tag protein labeling kit); experiment: MST; Monolith NT.115; RED-tris-NTA labeled IMA-3-His6 at 100 nM, serial dilution of unlabeled CMK-1 in 1x PBS with 0.05% Tween 20; 40% laser power; with 2 mM Ca2+, no CaM
T1 construct: IMA-3, importin-α of C. elegans; also called HisTag::IMA-3; source: E. coli BL21 (DE3), purified (Ni-NTA, desalting spin column)
T1 sequence (looked up): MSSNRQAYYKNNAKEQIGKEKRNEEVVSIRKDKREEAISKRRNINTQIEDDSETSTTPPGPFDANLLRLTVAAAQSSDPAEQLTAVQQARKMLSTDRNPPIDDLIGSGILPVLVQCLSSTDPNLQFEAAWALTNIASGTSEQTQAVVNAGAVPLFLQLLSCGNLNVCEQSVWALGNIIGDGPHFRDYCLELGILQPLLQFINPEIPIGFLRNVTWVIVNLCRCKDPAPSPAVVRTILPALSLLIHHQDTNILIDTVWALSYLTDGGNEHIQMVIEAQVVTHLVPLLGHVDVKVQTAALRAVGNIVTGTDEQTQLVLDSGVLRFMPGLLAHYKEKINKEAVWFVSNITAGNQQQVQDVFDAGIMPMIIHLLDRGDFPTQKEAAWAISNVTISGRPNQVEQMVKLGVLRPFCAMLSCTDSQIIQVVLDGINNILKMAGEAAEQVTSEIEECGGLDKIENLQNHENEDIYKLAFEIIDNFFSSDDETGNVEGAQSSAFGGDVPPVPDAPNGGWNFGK

[2] = target: T1, IMA-3-His6 (IMA-3 importin-α); experiment: MST; Monolith NT.115; RED-tris-NTA labeled IMA-3-His6 at 100 nM, serial dilution of unlabeled CMK-1 in 1x PBS with 0.05% Tween 20; 40% laser power; no Ca2+, no CaM; triplicates
[3] = target: T1, IMA-3-His6 (IMA-3 importin-α); experiment: MST; Monolith NT.115; RED-tris-NTA labeled IMA-3-His6 at 100 nM, serial dilution of unlabeled CMK-1 in 1x PBS with 0.05% Tween 20; 40% laser power; with 2 mM CaCl2 and 8 µM CaM; triplicates

B1: CMK-1(wt), calcium/calmodulin-dependent protein kinase-1 (enzyme, C. elegans, UniProt Q9TXJ0 1-348, looked up)
chain: MPLFKRRDGSGPAPNATIREKYDFRDVLGTGAFSKVFLAESKSDAGQMYAVKCIDKKALKGKEESLENEIKVLRKLRHNNIVQLFDTYDEKQFVYLVMELVTGGELFDRIVAKGSYTEQDASNLIRQVLEAVGFMHDNGVVHRDLKPENLLYYNQDEDSKIMISDFGLSKTEDSGVMATACGTPGYVAPEVLQQKPYGKAVDVWSIGVIAYILLCGYPPFYDESDANLFAQIIKGEYEFDAPYWDQISDSAKDFITHLMCCDPEARFTCQDALSHPWISGNTAYTHDIHGTVAVHLKKSLAKRNWKKAYNAAAAIRQLQMLRLSSNSNRLQKQASQQQPEPPTPAFHA
notes: CMK-1 of C. elegans, ortholog of mammalian CaMKI/IV; cmk-1 cds inserted in pDK2409 (plasmid dg922 [cmk-1(wt)::GST-TEV]); TEV cleavage removes the GST tag to recover untagged CMK-1; also called CaMKI; source: E. coli BL21 (DE3), purified (Glutathione beads, eluted by TEV cleavage)
Kd [1]: 1140 nM
Kd [2]: 1540 nM
Kd [3]: 450 nM

B2: CMK-1(K71A/R74Q/R77S) (enzyme, C. elegans, UniProt Q9TXJ0 1-348, looked up)
chain: B1 chain with K71A, R74Q, R77S
notes: CMK-1 of C. elegans with three point mutations in the NLS 71-78; plasmid dg929 [cmk-1(K71A/R74Q/R77S)::GST-TEV] made by site-directed mutagenesis from dg922; TEV cleavage removes the GST tag; also called NLS71-78 mutant CMK-1; CMK-1 (K71A/R74Q/R77S) triple mutant; source: E. coli BL21 (DE3), purified (Glutathione beads, eluted by TEV cleavage)
Kd [2]: 1220 nM
Kd [3]: 1000 nM
